Measurements from patent US20220306736A1 (Y BIOLOGICS, published 2022).
Where a chain is given by its changes, count along the chain named.

B1: SA1956 (antibody, V domains shown)
VH: QVTLKESGPTLVKPTQTLTLTCTFSGFSLTTSGVAVAWIRQPPGKALEWLALIYWDGDERYSSSLKNRLTITKDTSKSQVVLTMTNMDPVDTATYYCARIRGYYDWGSYYSYGMDVWGQGTTVTVSS
VL: SYELTQPLSVSVALGQTARITCGGNNIGSKNVHWYQQKPGQAPVLVIYRDSNRPSGIPERFSGSNSGNTATLTISRAQAGDEADYYCQVWDSSTHVVFGGGTKLTVL
B2: SA1957 (antibody, V domains shown)
VH: QVTLRESGPTLVKPTQTLTLTCTFSGFSFNTPGEGVTWIRQPPGKALEWLALIYWDDEKHYNPSLNGRLTITKDTSKSQVVLTMTNMDPVDTATYYCARIRGYYDWGSYYSYGMDVWGQGTTITVSS
VL: B1 VL with N68D, R76G
B3: SA1975 (antibody, V domains shown)
VH: QVQLVESGAEIKKPGASMNVSCKASGYIFTNYYIHWVRQAPGQGLEWIGIIDPSGGSTTYAQKFQHRVTMTSDTSTSTVYMELIGLGSEDTAVYYCARDYWGSLDYWGQGTLVTVSS
VL: NFMLTQPHSVSESPGKTVTISCTRSSGSIASNYVQWYQQRPGSAPTIVIYENYLRPSEVPDRFSGSIDSSSNSASLTISGLKTEDEGDYYCQSYDSRNRNYVFGTGTKVTVL
B4: SA2283 (antibody, V domains shown)
VH: QVQLVESGGGLVKPGGSLRLSCAASGFTFSDYYMSWIRQAPGKGLEWVSYISSSGSTIYYADSVKGRFTISRDNAKNSLYLQMNSLRAEDTAVYYCARRYSAYETGYFDFWGQGTLVTVSS
VL: DIQMTQSPSSLSASVGDRVTITCRASQGISTYLNWYQQKPGKAPKLLIYSTSTLQTGVPSRFSGGGSGTDFTLTISSLQPEDFATYYCQQSYSAPPTFGPGTKVEIK
B5: SA2285 (antibody, V domains shown)
VH: QVTLRESGPTLVKPTQTLTLTCTFRGFSLNTPGMGVAWIRQPPGKALEWLGLVFWDDDKTYRPSLRNRLTITKETSKSQVVLTMTNMDPVDTATYYCARIRGYYDWGSYYSYGMDVWGQGTTVTVSS
VL: SYELTQPLSVSVALGQTARITCGGNNIGSKNVHWYQQKPGQAPVLVIYRDSNRPSGIPERFSGSNSGNTATLTISGVEAGDEADYYCQVWDSNSDQYVFGTGSKVTVL
B6: SA2287 (antibody, V domains shown)
VH: QVQLVESGGGVVQPGRSLRLSCAASGFTFSSRGMHWVRQAPGKGLEWVALIWYHGSDDSYADSVKGRFTISRDNSKNMVYLQMNSLRAEDTAVYYCANLGATDGFDIWGQGTVVTVSS
VL: QSALTQPASVSGSPGQSITISCTGTSSDVSAYNYVSWYQQHPGKAPKLMIYGVSDRPSGVSFRFSGSKSGNTASLTISGLQAEDEAYYYCNSYTTSNTWVFGGGTKLTVL
B7: SA2290 (antibody, V domains shown)
VH: QMQLVESGAEVKKPGASVKVSCKASGYTFTSYGISWVRQAPGQGLEWMGWISAYNGNTNYAQKLQGRVTMTTDTSTSTAYMELRSLRSEDTAVYYCARDYWGSLDHWGQGALVTVSS
VL: B3 VL with E12G, A30D, S31I, V48I, N52D, Y53S, L54Q, P56T, E58G, S69R
B8: SA2291 (antibody, V domains shown)
VH: QMQLVESGGGLVKPGGSLRLSCAASGFTFSDHYMSWIRQAPGKGLEWVSSISSGGGTIYYADSVKGRFTISRDNAKNSLYLQMNSLRAEDTAVYYCARREYDSDGHYYFDYWGQGILVTVSS
VL: SYELTQPPSVLVSPGQTARITCSGDALPKQYAYWYQQKPGQAPVLVMYKDNVRPSGIPERFSGSSSGTTVTLTISRVQAEDEADYYCQSVDSSDTSVVFGGGTKLTVL
B9: SA2386 (antibody, V domains shown)
VH: QVQLVESGGGLVKPGGSLRLSCAASGSTFRVAWVNWVRQAPGKGLEWVGRIKSNSDGGTTDYATPMKDRFIISRDDSKNTVFLQMNSLRAEDTAVYYCARHGDANAYYYGMDVWGQGTKVTVSS
VL: QSALTQPASVSGSPGQSITISCTGTSSDVGGYNYISWYQQHPGKAPRLLIYDVSDRPSGVSNRFSGSKSANTASLTISGLQAEDEADYYCSSYASSSTLYVFGTGTKVTVL
B10: SA2390 (antibody, V domains shown)
VH: QVQLVESGGGLVQPGRSLRLSCAASGFTFDDYAMHWVRQAPGKGLEWISGISWNSGNIVYADSVKGRFTISRDNAKNSLYLQMNSLRAEDTAVYYCARETALAFDMWGPGTMVTVSS
VL: DIQMTQSPSSVSASVGDRVTITCRASQGISYWLAWYQQKPGIAPKLLIFASSRLHSGVPSRFNGSGSGTDFTLTINSLQPEDFATYYCLQATSFPYTFGQGTKLEIK
B11: SA2455 (antibody, V domains shown)
VH: QMQLVESGGGLVKPGGSLRLSCAASGFTFSDYYMSWIRQAPGKGLEWVSYISSSGSTIYYADSVKGRFTISRDNAKNSLYLQMNSLRAEDTAVYYCARPGYYYGLDVWGQGTTVTVSS
VL: DIQMTQSPSTLSASVGDRVTITCRASQSISSWLAWYQQKPGIAPKLLIYQASILDSGVPSRFSGSGSGTEFTLTISSLQPDDFATYYCQQYSSLWTFGPGTKVDIK

Target: T1, hVSIG4(S)-hFc (human)
T1 construct: also called VGIG4(S)-Fc; hVSIG4 short-hFc (S)
Test: western blot, 100 ng hVSIG4 short-hFc (FIG. 11B)
Procedure: (A) Binding to hVSIG4(S) and hVSIG4(L) was assayed by ELISA with the original scFv versions of the 11 human anti-VSIG4 antibodies. (B) Binding to hVSIG4(S) and hVSIG4(L) was assayed by western blotting with the 11 full-length human anti-VSIG4 antibodies. NRH: Non-reduced, heated; RH: Reduced, heated.
In each case, 100 ng of hVSIG4 long-hFc (L) and hVSIG4 short-hFc (S) were probed with the specific anti-VSIG4 antibody.

| Binder | binding result |
| --- | --- |
| B1 | binds |
| B2 | binds |
| B3 | binds |
| B4 | binds |
| B5 | binds |
| B6 | binds |
| B7 | binds |
| B8 | binds |
| B9 | binds |
| B10 | binds |
| B11 | binds |
